Experimental findings from paper PMC9405070, “Metabolic and Structural Insights into Hydrogen Sulfide Mis-Regulation in Enterococcus faecalis” (Antioxidants, 2022) are described below.

The target in data set [1] is Enterococcus faecalis coenzyme A persulfide (CoASSH) reductase (Enterococcus faecalis strain OG1RF). In words: crystal structure; EfCoAPR as isolated from E. coli, with FAD and CoA (PAP moiety seen); crystals in 20% PEG 3350, 0.1 M Bis-Tris propane pH 6.50, 0.2 M sodium iodide; two molecules in the asymmetric unit; 2.05 Å.
Data set [2] addresses T1, Ef Pta / EfPta (phosphotransacetylase) (Enterococcus faecalis, UniProt A0ACD6TAM5).
T1 construct: Ni-NTA and Superdex G200; C182 in CoA pocket, R319, S318, D325 in active site
In words: acetyl-CoA yield by LC-MS after […] s. It is filed as biochemical. As to conditions: 150 uM CoASSH as in situ mixture with equimolar CoASH, excess Na2S and CoA disulfide; 5 mM acetylphosphate, pH 8.0, room temperature, anaerobic.

Data set [3] concerns the target T1, Ef Pta / EfPta (phosphotransacetylase). In words: thioester formation at […] nm. In kind it is biochemical. As to conditions: 5 mM acetylphosphate; 25 mM Tris-HCl, 40 mM KCl, pH 8.0, room temperature, anaerobic; 10 uM to 5 mM CoA.
Substrate in data set [4]: CC(=O)SCCNC(=O)CCNC(=O)[C@H](O)C(C)(C)COP(=O)(O)OP(=O)(O)OC[C@H]1O[C@@H](n2cnc3c(N)ncnc32)[C@H](O)[C@@H]1OP(=O)(O)O
In words: purified protein. As to conditions: 5 mM KH2PO4, 25 mM Tris-HCl, 40 mM KCl, pH 8.0, room temperature, anaerobic, 10 uM to 5 mM acetyl-CoA. In kind it is biochemical, Enterococcus faecalis.

In data set [1], “Enterococcus faecalis coenzyme A persulfide (CoASSH) reductase” returned a stoichiometry N of 2. For `CC(C)(COP(=O)(O)OP(=O)(O)OC[C@H]1O[C@@H](n2cnc3c(N)ncnc32)[C@H](O)[C@@H]1OP(=O)(O)O)[C@@H](O)C(=O)NCCC(=O)NCCSS` [CoASSH], the “inhibition of acetyl-CoA formation” value in data set [2] is “This inhibition of activity was due to CoASSH specifically”. Consider CoA, for which the Km in data set [3] amounted to 69 µM.

B1: Ef Pta / EfPta (phosphotransacetylase) (Enterococcus faecalis OG1RF) (protein)
chain: MYDGFCKYKTGGFIVELFDSLKFKVVRRNIKIVFPEATDPRILGAAARLKSDELVEPILIGDPTDIANAAMARGINTSNFIIINPNDYEKWDEMVEAFVERRNGKATKEDAEKILKDVNYFGTMLTYMGIADGMVSGAIHSTGDTVRPALQIIKTKPGVSRTSGAFLMIRGRDQERYLFSDCAINVNPTAQELAEIAVDSAKTAELFDIEPKVSLLSFSTKGSAKAPEVTKVAEATKIAQELAPEYAIDGELQFDASYVSSVAQLKAPNSKVAGEATVFVFPDLQSGNIGYKIAQRLGNFEAIGPILQGLNKPVSDLSRGANEEDVYKLSIITAAQTLMND
notes: Ni-NTA and Superdex G200; C182 in CoA pocket, R319, S318, D325 in active site
For the molecule B1, the Km in data set [4] is recorded as 57 (±16) μM.

For orientation: stoichiometry N means a count of units in the complex or per binding partner.
